# Assay results reported in PMC5371411 (mBio, 2017).
# Values joined by “and” are separate entries in the source; they are usually repeats but may differ in a detail not shown here. Equal values may be shown once.
# Legend:
# EspCS256I = EspCS256I (enteropathogenic Escherichia coli (EPEC), UniProt Q9EZE7 54-1018, S256I); test: pull-down; conditions: both partners purified
# EspC His-Middle segment = molecular target: T1, EspC His-Middle segment (enteropathogenic Escherichia coli (EPEC), UniProt Q9EZE7 382-708); test: SPR; His-EspA amine-coupled (EDC-NHS, 10 mM sodium acetate pH 4.0) to a planar polyethylene glycol/carboxyl sensor slide; analyte perfused in PBST at 50 µl/min; Reichert SR7500DC; conditions: both partners purified
# T1 construct: also called Middle fragment; source: E. coli BL21(D3)pLysS, pRSET-A, purified (Ni-NTA agarose); not shown: 6xHis, N-terminal, kept
# T1 sequence: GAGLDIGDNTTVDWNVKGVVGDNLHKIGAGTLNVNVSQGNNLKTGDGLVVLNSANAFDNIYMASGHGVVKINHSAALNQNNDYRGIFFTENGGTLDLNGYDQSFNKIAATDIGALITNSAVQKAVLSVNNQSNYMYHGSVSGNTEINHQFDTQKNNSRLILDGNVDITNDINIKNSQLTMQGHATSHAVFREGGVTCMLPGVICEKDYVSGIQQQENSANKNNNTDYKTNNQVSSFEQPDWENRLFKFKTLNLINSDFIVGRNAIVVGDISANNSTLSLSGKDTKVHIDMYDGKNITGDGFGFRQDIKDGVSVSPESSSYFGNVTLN
# [1] = molecular target: the molecule itself; test: as above
# His-EspC = molecular target: T2, His-EspC (enteropathogenic Escherichia coli (EPEC), UniProt Q9EZE7 55-1032); test: SPR; His-EspC coupled by its His tag and EDC-NHS on a nickel-nitrilotriacetic acid sensor slide; His-EspA or His-EspA/His-EspD perfused in PBST at 50 µl/min; Reichert SR7500DC; conditions: both partners purified
# T2 construct: also called whole EspC passenger domain tagged with 6xHis; whole EspC protein (SPR); source: E. coli BL21(D3)pLysS, pRSET-A, purified (Ni-NTA agarose); not shown: 6xHis, N-terminal, kept
# T2 sequence: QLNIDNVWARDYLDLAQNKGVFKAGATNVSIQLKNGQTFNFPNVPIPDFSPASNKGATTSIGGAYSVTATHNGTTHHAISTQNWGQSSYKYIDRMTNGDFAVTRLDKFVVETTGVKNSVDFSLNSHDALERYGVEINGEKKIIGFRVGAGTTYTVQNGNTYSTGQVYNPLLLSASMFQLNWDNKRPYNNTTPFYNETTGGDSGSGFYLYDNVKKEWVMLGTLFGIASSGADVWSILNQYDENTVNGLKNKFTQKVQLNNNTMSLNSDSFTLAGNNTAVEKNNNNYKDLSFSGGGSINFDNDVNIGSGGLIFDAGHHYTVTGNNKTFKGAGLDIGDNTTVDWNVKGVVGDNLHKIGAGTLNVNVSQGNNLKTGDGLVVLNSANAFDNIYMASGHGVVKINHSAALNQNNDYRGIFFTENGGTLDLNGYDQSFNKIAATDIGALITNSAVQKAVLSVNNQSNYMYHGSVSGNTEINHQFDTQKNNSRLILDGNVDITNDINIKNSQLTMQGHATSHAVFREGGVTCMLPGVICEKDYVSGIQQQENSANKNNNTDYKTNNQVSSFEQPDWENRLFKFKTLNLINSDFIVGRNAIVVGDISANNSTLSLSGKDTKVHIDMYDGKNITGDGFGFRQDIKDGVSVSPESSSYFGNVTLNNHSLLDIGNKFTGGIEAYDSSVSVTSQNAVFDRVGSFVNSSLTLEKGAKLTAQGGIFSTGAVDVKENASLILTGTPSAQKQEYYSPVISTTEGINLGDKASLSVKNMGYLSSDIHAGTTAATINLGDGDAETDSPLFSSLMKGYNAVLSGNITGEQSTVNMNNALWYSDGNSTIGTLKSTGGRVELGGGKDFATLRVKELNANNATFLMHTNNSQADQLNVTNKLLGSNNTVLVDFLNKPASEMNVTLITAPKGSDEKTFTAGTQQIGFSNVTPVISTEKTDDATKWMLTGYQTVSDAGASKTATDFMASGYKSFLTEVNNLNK
binder,measurement,setting,value
"His-EspA (natural protein, also called EPEC secreted protein A) MDTSTTASVASANASTSTSMAYDLGSMSKDDVIDLFNKLGVFQAAILMFAYMYQAQSDLSIAKFADMNEASKESTTAQKMANLVDAKIADVQSSSDKNAKAQLPDEVISYINDPRNDITISGIDNINAQLGAGDLQTVKAAISAKANNLTTTVNNSQLEIQQMSNTLNLLTSARSDMQSLQYRTISGISLGK",binding result,EspCS256I,binds
same,Kd,EspC His-Middle segment,3.45 nM and 3.43 nM
same,Kd,[1],2.64 nM
same,Kd,His-EspC,25.1 nM
